Data taken from patent US20140193915, “COMPOSITIONS AND METHODS FOR CUSTOM SITE-SPECIFIC DNA RECOMBINASES” (Monsanto Technology, LLC, published 2014).

Tests used:
sN-TALER IV-3 = target: T1, sN-TALER IV-3 (synthetic); test: cell_activity; E. coli; conditions: tags: 6-His
T1 chain: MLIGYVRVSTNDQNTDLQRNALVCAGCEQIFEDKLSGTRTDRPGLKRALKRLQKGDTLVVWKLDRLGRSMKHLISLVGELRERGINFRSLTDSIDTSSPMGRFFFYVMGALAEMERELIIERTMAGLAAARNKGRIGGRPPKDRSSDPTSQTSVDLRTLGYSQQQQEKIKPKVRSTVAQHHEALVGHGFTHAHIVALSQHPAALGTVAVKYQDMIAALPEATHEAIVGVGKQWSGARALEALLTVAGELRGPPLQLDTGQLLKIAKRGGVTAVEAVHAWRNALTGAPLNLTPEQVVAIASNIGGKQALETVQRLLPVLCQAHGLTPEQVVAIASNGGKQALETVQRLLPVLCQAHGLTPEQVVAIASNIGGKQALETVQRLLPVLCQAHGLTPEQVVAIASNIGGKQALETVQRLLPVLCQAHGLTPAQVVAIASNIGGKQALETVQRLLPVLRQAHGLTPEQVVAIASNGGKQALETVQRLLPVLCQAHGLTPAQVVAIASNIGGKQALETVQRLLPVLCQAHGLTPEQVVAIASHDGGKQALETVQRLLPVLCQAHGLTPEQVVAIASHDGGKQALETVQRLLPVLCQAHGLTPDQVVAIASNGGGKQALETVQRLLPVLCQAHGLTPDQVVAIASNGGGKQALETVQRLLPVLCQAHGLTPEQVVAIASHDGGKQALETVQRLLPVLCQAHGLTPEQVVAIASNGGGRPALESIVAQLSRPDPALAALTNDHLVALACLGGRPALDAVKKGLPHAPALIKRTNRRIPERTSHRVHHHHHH
Outline: (§1)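 DH5alpha cells co-transformed (heat shock or electroporation) with N-TALER expression and reporter plasmids at ~1:1 mass ratio; reporter alone as control. Plated on chloramphenicol/kanamycin/X-gal, grown 37° C. for 18 to 36 hours; recombination scored by colony colour.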

[1] = target: T2, sN-TALER IV-2 (GinH106Y-TALE13) (synthetic); test: cell_activity; E. coli; conditions: tags: 6-His
T2 chain: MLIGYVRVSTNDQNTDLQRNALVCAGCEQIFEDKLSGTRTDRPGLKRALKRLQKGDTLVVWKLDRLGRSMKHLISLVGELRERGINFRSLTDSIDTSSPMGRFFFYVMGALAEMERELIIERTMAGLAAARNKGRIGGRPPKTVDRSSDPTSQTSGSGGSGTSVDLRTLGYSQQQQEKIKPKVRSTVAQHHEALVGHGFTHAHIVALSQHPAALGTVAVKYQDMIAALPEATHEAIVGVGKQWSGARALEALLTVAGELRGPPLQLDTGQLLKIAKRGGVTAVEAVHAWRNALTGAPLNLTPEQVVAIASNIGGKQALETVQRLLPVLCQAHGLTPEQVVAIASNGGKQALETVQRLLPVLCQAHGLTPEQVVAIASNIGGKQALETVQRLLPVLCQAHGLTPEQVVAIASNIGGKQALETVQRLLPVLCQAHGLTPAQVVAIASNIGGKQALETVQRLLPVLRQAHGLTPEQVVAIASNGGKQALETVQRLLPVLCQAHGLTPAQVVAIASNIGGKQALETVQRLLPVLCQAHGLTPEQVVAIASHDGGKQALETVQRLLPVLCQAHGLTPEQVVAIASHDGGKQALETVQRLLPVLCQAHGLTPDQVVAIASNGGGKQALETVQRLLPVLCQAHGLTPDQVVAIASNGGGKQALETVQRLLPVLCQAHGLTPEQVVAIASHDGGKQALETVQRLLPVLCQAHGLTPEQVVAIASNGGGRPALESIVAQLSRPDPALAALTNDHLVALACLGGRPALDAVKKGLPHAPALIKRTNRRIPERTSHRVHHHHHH
Outline: as §1

B1: Gin18TALE+0 (dsDNA)
DNA 1: AGAAGGTATTTATACCAAAACCATGGTTTACATATAAATACCTTCT
DNA 2: AGAAGGTATTTATATGTAAACCATGGTTTTGGTATAAATACCTTCT
- activity (sN-TALER IV-3): 2 score
- activity [1]: 1 score

B2: Gin20TALE+0 (dsDNA)
DNA 1: AGAAGGTATTTATATCCAAAACCATGGTTTACAGTATAAATACCTTCT
DNA 2: AGAAGGTATTTATACTGTAAACCATGGTTTTGGATATAAATACCTTCT
- activity (sN-TALER IV-3): 1 score
- activity [1]: 1 score
